Like-named read-outs stand apart in the source and are kept apart here.
Tests used:
Test in all cases: SEC-MALS
[1] = biological target: DdMICU (Dictyostelium discoideum MICU, residues 105–461) (Dictyostelium discoideum)
[2] = biological target: DdMICU (Dictyostelium discoideum MICU, residues 105–461) (Dictyostelium discoideum); remark: listed apart in the source
[3] = biological target: DdMICU (Dictyostelium discoideum MICU, residues 105–461) (Dictyostelium discoideum); remark: listed apart in the source

stoichiometry N [1]: 2
stoichiometry N [2]: 4
stoichiometry N [3]: 2
Substance: DdMICU (Dictyostelium discoideum MICU, residues 105–461) (domain or fragment)

Reference: article PMC12095637
